# Literature values in PMC3538140.
# Target: TRAIL-R1 (Homo sapiens) (UniProt O00220)
# UniProt O00220, sequence (O00220 24-468): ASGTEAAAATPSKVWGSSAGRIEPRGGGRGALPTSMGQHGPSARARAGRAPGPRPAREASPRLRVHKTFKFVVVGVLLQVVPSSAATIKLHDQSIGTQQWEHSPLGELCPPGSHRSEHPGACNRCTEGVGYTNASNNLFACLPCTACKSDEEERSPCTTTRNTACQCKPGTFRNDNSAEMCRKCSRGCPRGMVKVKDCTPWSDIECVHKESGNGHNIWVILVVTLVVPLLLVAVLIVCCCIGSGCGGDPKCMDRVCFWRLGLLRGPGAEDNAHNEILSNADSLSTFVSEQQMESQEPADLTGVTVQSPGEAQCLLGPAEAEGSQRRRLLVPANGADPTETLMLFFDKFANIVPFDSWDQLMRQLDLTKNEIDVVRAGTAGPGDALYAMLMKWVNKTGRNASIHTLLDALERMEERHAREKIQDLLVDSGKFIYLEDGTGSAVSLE
substance,measurement,value
TRAIL (from UniProt P50591),Kd,0.07 µM
